# Measured values from US20030082745A1 (published 2003).
# T1: pol κ76 (76 kDa alternatively spliced isoform product of POLK) (human, UniProt Q9UBT6 1-870)
# T1 construct: Tested as a yeast two-hybrid fusion (FLAG-modified pGBT9 / pGAD424); also called 76-kDa pol κ isoform
# T1 sequence: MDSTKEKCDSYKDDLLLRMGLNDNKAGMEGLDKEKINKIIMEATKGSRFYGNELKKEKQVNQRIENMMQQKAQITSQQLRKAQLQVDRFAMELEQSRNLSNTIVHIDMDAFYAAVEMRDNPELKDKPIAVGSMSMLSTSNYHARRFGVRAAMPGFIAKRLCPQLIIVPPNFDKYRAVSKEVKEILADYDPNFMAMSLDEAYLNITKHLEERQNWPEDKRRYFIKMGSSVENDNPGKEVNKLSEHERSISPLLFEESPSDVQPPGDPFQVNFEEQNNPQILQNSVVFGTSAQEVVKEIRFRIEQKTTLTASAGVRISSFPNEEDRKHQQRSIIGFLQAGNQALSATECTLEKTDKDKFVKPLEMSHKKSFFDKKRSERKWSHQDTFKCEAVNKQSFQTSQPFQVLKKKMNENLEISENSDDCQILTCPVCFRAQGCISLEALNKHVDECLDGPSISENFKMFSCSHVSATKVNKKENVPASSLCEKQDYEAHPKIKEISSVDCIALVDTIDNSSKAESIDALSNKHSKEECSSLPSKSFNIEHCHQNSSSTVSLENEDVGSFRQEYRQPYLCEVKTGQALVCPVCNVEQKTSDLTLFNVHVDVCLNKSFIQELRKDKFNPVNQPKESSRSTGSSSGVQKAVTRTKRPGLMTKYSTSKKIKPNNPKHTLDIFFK
# T2: pol κ (primary protein product of POLK; DNA polymerase κ) (human, UniProt Q9UBT6 1-870)
# T2 construct: Tested as a yeast two-hybrid fusion (FLAG-modified pGBT9 / pGAD424); also called DINB1 product
# T2 sequence (looked up): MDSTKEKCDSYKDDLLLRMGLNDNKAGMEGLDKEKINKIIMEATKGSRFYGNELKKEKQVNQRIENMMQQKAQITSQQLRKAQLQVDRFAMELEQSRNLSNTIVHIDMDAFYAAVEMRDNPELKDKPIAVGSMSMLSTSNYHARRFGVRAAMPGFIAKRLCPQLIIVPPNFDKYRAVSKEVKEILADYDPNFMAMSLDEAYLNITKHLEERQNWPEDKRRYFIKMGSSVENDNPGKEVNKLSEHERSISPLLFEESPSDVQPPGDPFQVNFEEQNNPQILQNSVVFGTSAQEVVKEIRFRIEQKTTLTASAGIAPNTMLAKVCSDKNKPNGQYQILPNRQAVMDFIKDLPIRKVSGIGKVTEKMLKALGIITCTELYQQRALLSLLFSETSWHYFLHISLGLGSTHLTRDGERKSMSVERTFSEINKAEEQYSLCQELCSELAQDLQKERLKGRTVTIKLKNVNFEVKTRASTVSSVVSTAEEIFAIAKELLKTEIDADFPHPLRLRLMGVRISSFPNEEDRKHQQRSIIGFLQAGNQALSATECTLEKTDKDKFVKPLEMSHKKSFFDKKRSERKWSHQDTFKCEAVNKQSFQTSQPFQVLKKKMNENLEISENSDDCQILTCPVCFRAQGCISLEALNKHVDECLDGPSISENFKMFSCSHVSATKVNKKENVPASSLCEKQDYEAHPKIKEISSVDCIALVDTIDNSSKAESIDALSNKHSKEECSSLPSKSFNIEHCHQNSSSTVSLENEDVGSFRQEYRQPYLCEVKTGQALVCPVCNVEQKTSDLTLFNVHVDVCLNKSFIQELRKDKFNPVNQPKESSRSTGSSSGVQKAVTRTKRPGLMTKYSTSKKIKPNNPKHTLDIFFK
# What was measured:
# [1] = biological target: T1, pol κ76 (76 kDa alternatively spliced …); test: yeast two-hybrid
# [2] = biological target: T2, pol κ (primary protein product of POLK; …); test: yeast two-hybrid
binder,measurement,setting,value
"GPBPΔ26 (Goodpasture antigen binding protein alternatively spliced product deleted for 26 amino acid residues) (enzyme, Splice isoform of the entry named (26 residues deleted); Two-hybrid construct not described; also called GPBPΔ26) MSDNQSWNSSGSEEDPETESGPPVERCGVLSKWTNYIHGWQDRWVVLKNNALSYYKSEDETEYGCRGSICLSKAVITPHDFDECRFDISVNDSVWYLRAQDPDHRQQWIDAIEQHKTESGYGSESSLRRHGSMVSLVSGASGYSATSTSSFKKGHSLREKLAEMETFRDILCRQVDTLQKYFDACADAVSKDELQRDKVVEDDEDDFPTTRSDGDFLHSTNGNKEKLFPHVTPKGINGIDFKGEAITFKATTAGILATLSHCIELMVKREDSWQKRLDKETEKKRRTEEAYKNAMTELKKKSHFGGPDYEEGPNSLINEEEFFDAVEAALDRQDKIEEQSQSEKVRLHWPTSLPSGDAFSSVGTHRFVQKVEEMVQNHMTYSLQDVGGDANWQLVVEEGEMKVYRREVEENGIVLDPLKATHAVKGVTGHEVCNYFWNVDVRNDWETTIENFHVVETLADNAIIIYQTHKRVWPASQRDVLYLSVIRKIPALTENDPETWIVCNFSVDHDSAPLNNRCVRAKINVAMICQTLVSPPEGNQEISRDNILCKITYVANVNPGGWAPASVLRAVAKREYPKFLKRFTSYVQEKTAGKPILF",binding result,[1],no binding
same,binding result,[2],no binding
"GPBP (Goodpasture antigen binding protein) (enzyme, UniProt Q9Y5P4 1-624, looked up, Two-hybrid construct (fusion domain, limits, species) is not described; also called product of COL4A3BP) MSDNQSWNSSGSEEDPETESGPPVERCGVLSKWTNYIHGWQDRWVVLKNNALSYYKSEDETEYGCRGSICLSKAVITPHDFDECRFDISVNDSVWYLRAQDPDHRQQWIDAIEQHKTESGYGSESSLRRHGSMVSLVSGASGYSATSTSSFKKGHSLREKLAEMETFRDILCRQVDTLQKYFDACADAVSKDELQRDKVVEDDEDDFPTTRSDGDFLHSTNGNKEKLFPHVTPKGINGIDFKGEAITFKATTAGILATLSHCIELMVKREDSWQKRLDKETEKKRRTEEAYKNAMTELKKKSHFGGPDYEEGPNSLINEEEFFDAVEAALDRQDKIEEQSQSEKVRLHWPTSLPSGDAFSSVGTHRFVQKPYSRSSSMSSIDLVSASDDVHRFSSQVEEMVQNHMTYSLQDVGGDANWQLVVEEGEMKVYRREVEENGIVLDPLKATHAVKGVTGHEVCNYFWNVDVRNDWETTIENFHVVETLADNAIIIYQTHKRVWPASQRDVLYLSVIRKIPALTENDPETWIVCNFSVDHDSAPLNNRCVRAKINVAMICQTLVSPPEGNQEISRDNILCKITYVANVNPGGWAPASVLRAVAKREYPKFLKRFTSYVQEKTAGKPILF",binding result,[1],no binding
same,binding result,[2],no binding
